Target: hAGO2 (Homo sapiens, UniProt Q9UKV8 1-859)
Test: EMSA; 20 nM probe, binding buffer of cited ref. 28 (composition and pH not given), on ice 30 min; 5% native PAGE, 0.5x TBE, 100 V 50 min
Details: protein: recombinant; tags: MBP-tag removed by thrombin; HisTrap purification (His tag implied); label: 5'-Cy5; single strand

Chain of hAGO2 (Q9UKV8 whole entry): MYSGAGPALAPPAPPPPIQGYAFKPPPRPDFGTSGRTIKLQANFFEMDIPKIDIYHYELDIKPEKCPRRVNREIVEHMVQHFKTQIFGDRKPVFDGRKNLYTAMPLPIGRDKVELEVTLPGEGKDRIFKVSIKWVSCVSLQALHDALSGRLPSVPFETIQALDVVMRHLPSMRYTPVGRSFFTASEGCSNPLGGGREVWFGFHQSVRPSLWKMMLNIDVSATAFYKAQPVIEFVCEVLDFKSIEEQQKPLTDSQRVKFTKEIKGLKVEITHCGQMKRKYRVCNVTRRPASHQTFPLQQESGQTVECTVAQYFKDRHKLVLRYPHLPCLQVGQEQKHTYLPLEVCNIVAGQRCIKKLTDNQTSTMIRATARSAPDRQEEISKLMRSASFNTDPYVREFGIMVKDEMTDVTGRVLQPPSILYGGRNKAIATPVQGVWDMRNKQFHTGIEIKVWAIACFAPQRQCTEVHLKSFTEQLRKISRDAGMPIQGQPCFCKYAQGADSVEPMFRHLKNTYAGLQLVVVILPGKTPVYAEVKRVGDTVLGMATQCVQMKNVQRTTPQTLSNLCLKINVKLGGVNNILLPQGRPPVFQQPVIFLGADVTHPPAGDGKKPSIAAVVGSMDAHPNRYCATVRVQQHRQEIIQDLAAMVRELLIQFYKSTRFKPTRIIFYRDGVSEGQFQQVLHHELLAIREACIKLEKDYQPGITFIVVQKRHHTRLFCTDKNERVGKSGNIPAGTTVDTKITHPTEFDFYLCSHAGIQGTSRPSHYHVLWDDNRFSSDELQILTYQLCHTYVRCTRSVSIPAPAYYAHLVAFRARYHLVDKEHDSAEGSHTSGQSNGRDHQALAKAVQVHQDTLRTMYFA

Work on AAUGGAUUUUUGGAGCAGG (ssRNA) [5'Cy5-miR-1246] yielded a Kd of 12.2 ± 1.8 nM.

From paper PMC10999177, “miR‐1246 promotes osteosarcoma cell migration via NamiRNA‐enhancer network dependent on Argonaute 2”
